One test has as its target LexA-CIB1 (No biLINuS). As to the kind of experiment: cell-based or functional assay.
The target of a further test is T1, LexA-CIB1-biLINuS.
T1 chain: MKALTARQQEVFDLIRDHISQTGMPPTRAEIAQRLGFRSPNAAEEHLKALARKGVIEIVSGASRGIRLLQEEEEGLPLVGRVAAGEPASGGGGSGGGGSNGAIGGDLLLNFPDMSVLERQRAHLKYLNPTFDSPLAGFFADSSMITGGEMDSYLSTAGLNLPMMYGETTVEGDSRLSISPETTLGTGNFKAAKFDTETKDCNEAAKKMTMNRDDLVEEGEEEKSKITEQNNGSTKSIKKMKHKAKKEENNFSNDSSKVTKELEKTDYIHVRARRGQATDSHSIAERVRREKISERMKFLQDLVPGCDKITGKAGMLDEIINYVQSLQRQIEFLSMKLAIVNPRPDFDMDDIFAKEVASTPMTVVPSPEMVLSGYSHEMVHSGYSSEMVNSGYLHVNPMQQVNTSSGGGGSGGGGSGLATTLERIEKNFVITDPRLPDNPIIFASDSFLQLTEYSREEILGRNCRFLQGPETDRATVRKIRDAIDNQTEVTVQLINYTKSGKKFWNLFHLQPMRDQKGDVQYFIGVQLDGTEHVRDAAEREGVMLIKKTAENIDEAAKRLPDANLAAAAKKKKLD
As to the kind of experiment: cell-based or functional assay.

B1: CRY2PHR-VPR (other)
chain: MKMDKKTIVWFRRDLRIEDNPALAAAAHEGSVFPVFIWCPEEEGQFYPGRASRWWMKQSLAHLSQSLKALGSDLTLIKTHNTISAILDCIRVTGATKVVFNHLYDPVSLVRDHTVKEKLVERGISVQSYNGDLLYEPWEIYCEKGKPFTSFNSYWKKCLDMSIESVMLPPPWRLMPITAAAEAIWACSIEELGLENEAEKPSNALLTRAWSPGWSNADKLLNEFIEKQLIDYAKNSKKVVGNSTSLLSPYLHFGEISVRHVFQCARMKQIIWARDKNSEGEESADLFLRGIGLREYSRYICFNFPFTHEQSLLSHLRFFPWDADVDKFKAWRQGRTGYPLVDAGMRELWATGWMHNRIRVIVSSFAVKFLLLPWKWGMKYFWDTLLDADLECDILGWQYISGSIPDGHELDRLDNPALQGAKYDPEGEYIRQWLPELARLPTEWIHHPWDAPLTVLKASGVELGTNYAKPIVDIDTARELLAKAISRTREAQIMIGAAPASPKKKRKVEASSPGIRRLDALISTSLYKKAGYKEASGSGRADALDDFDLDMLGSDALDDFDLDMLGSDALDDFDLDMLGSDALDDFDLDMLINSRSSGSPKKKRKVGSQYLPDTDDRHRIEEKRKRTYETFKSIMKKSPFSGPTDPRPPPRRIAVPSRSSASVPKPAPQPYPFTSSLSTINYDEFPTMVFPSGQISQASALAPAPPQVLPQAPAPAPAPAMVSALAQAPAPVPVLAPGPPQAVAPPAPKPTQAGEGTLSEALLQLQFDDEDLGALLGNSTDPAVFTDLASVDNSEFQQLLNQGIPVAPHTTEPMLMEYPEAITRLVTGAQRPPDPAPAPLGAPGLPNGLLSGDEDFSSIADMDFSALLGSGSGSRDSREGMFLPKPEAGSAISDVFEGREVCQPKRIRPFHPPGSPWANRPLPASLAPTPTGPVHEPVGSLTPAPVPQPLDPAPAVTPEASHLLEDPDEETSQAVKALREMADTVIPQKEEAAICGQMDLSHPPPRGHLDELTTTLESMTEDLNLDSPLTPELNEILDTFLNDECLLHAMHISTGLSIFDTSLF
Turning to B1, the “induction of Fluc activity normalized by Rluc upon light stimulation compared to the dark control (HEK 293T)” value with LexA-CIB1 (No biLINuS) turned out to be 68 fold. Besides, in the test with LexA-CIB1-biLINuS, the “increase of Fluc signal in the light-stimulated group comparing to the dark group (Jurkat cells)” value is over 1000 fold; the “induction of Fluc activity normalized by Rluc upon light stimulation compared to the dark control (HEK 293T)” value was 133 fold; the “mean cellular fluorescence intensity of mNeonGreen reporter, dark group, compared to the non-transfected cells (HEK 293T)” value was 1.7 fold; the “mean cellular fluorescence intensity of mNeonGreen reporter, light group, compared to the non-transfected cells (HEK 293T)” value was found to be 61 fold.

(Values after patent US20230233607A1 (University of California, published 2023).)
